Data published in publication PMC11984393.

Molecular target: CD8 (T-cell surface marker) (Mus musculus) (UniProt P01731)
Assay: flow cytometry
Conditions: 30 min, live-cell binding, 30 min incubation, buffer, salt, pH and temperature not given in the material

Sequence of UniProt P01731 (P01731 whole entry): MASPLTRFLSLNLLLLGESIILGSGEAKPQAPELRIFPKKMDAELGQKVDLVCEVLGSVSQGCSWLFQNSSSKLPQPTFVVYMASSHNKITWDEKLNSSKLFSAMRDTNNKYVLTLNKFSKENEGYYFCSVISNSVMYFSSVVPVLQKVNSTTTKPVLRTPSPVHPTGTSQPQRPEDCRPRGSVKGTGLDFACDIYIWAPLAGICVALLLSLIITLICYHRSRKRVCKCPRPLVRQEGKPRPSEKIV

Sequence	binding signal (% positive cells) (negative control)	binding signal (% positive cells)
TTTTTAAGTAATGTATTTAAATTGCGAACTACTACTCTCTCTATATATTGCGAACTACTACTCTCTCTATATTAAAGGAAGGATCTCA [Apt-random-FAM]	0.74	–
TTTTTTTTTTCCAGAGTGACGCAGCAACAGAGGTGTAGAAGTACACGTGAACAAGCTTGAAATTGTCTCCGACAGAGGTGGACACGGTGGCTTTTAGT [Apt-CD8-FAM]	–	44.4
